Data as given in publication PMC4714923 (Biochemistry, 2015).
Where no end group is shown, it is not given here. 5‑Fam = 5-carboxyfluorescein; Ahx = NCCCCCC(=O)O

T1: Human FKBP52 (52-kDa FK506-binding protein) (human, UniProt Q02790 1-459)
T1 sequence (looked up): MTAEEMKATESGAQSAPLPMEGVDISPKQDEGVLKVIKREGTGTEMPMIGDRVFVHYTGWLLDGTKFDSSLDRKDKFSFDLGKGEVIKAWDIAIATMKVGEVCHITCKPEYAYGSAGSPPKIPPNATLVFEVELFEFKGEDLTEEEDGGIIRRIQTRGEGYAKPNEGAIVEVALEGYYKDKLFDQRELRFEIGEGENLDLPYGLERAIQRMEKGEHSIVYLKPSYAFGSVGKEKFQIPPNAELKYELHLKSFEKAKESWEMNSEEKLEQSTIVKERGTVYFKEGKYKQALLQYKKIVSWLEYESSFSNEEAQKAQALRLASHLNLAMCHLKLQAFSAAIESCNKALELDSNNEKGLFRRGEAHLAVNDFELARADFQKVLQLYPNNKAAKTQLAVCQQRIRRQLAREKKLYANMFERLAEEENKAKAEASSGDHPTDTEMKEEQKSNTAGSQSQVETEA

T2: Human FKBP51 (51-kDa FK506-binding protein) (human, UniProt Q13451 1-457)
T2 sequence (looked up): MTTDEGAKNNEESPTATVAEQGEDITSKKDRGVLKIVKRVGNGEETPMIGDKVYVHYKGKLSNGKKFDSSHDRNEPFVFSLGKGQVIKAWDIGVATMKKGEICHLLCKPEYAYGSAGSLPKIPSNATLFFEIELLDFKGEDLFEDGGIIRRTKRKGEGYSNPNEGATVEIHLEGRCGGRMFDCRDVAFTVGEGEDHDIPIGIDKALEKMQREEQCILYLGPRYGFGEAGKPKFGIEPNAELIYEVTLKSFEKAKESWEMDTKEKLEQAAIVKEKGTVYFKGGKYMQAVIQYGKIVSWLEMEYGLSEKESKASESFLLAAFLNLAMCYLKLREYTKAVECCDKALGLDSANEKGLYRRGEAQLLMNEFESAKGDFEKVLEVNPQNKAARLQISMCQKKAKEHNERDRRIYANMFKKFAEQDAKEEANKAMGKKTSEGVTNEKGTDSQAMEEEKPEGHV

B1: Hsc70 C-terminal tracer (Fam-SSGPTIEEVD) (peptide)
peptide: {5‑Fam-Ahx}-SSGPTIEEVD
B2: Hsp72 C-terminal tracer (Fam-GSGPTIEEVD) (peptide)
peptide: {5‑Fam-Ahx}-GSGPTIEEVD
B3: chimeric mutant Hsp72 tracer (Fam-GSGPTMEEVD) (peptide)
peptide: {5‑Fam-Ahx}-GSGPTMEEVD
B4: mutant Hsp90α tracer (Fam-DDTSRIEEVD) (peptide)
peptide: {5‑Fam-Ahx}-DDTSRIEEVD
B5: Hsp90α Ala mutant tracer (Fam-DDTSRMEAVD) (peptide)
peptide: {5‑Fam-Ahx}-DDTSRMEAVD
B6: Hsp90α Lys mutant tracer (Fam-DDTSRMEKVD) (peptide)
peptide: {5‑Fam-Ahx}-DDTSRMEKVD
B7: Human CHIP (carboxyl terminus of Hsc70 interacting protein) (natural protein, UniProt Q9UNE7 1-303, looked up)
chain: MKGKEEKEGGARLGAGGGSPEKSPSAQELKEQGNRLFVGRKYPEAAACYGRAITRNPLVAVYYTNRALCYLKMQQHEQALADCRRALELDGQSVKAHFFLGQCQLEMESYDEAIANLQRAYSLAKEQRLNFGDDIPSALRIAKKKRWNSIEERRIHQESELHSYLSRLIAAERERELEECQRNHEGDEDDSHVRAQQACIEAKHDKYMADMDELFSQVDEKRKKRDIPDYLCGKISFELMREPCITPSGITYDRKDIEEHLQRVGHFDPVTRSPLTQEQLIPNLAMKEVIDAFISENGWVEDY
B8: Human DnaJC7 (natural protein, UniProt Q99615 1-494, looked up)
chain: MAAAAECDVVMAATEPELLDDQEAKREAETFKEQGNAYYAKKDYNEAYNYYTKAIDMCPKNASYYGNRAATLMMLGRFREALGDAQQSVRLDDSFVRGHLREGKCHLSLGNAMAACRSFQRALELDHKNAQAQQEFKNANAVMEYEKIAETDFEKRDFRKVVFCMDRALEFAPACHRFKILKAECLAMLGRYPEAQSVASDILRMDSTNADALYVRGLCLYYEDCIEKAVQFFVQALRMAPDHEKACIACRNAKALKAKKEDGNKAFKEGNYKLAYELYTEALGIDPNNIKTNAKLYCNRGTVNSKLRKLDDAIEDCTNAVKLDDTYIKAYLRRAQCYMDTEQYEEAVRDYEKVYQTEKTKEHKQLLKNAQLELKKSKRKDYYKILGVDKNASEDEIKKAYRKRALMHHPDRHSGASAEVQKEEEKKFKEVGEAFTILSDPKKKTRYDSGQDLDEEGMNMGDFDPNNIFKAFFGGPGGFSFEASGPGNFFFQFG

Legend:
Test in all cases: fluorescence polarisation
[1] = target: Hop K8A (human, UniProt P31948 1-543, K8A)
[2] = target: Hop R77A (human, UniProt P31948 1-543, R77A)
[3] = target: T1, Human FKBP52 (52-kDa FK506-binding …)
[4] = target: T2, Human FKBP51 (51-kDa FK506-binding …)
[5] = target: B7
[6] = target: Human Hop (Hsp70/Hsp90 organizing protein) (human, UniProt P31948 1-543)
[7] = target: Human Hsp72 (HSPA1A), full-length (human, UniProt P0DMV8 1-641)
Sequence of Human Hsp72 (HSPA1A), full-length (P0DMV8 whole entry): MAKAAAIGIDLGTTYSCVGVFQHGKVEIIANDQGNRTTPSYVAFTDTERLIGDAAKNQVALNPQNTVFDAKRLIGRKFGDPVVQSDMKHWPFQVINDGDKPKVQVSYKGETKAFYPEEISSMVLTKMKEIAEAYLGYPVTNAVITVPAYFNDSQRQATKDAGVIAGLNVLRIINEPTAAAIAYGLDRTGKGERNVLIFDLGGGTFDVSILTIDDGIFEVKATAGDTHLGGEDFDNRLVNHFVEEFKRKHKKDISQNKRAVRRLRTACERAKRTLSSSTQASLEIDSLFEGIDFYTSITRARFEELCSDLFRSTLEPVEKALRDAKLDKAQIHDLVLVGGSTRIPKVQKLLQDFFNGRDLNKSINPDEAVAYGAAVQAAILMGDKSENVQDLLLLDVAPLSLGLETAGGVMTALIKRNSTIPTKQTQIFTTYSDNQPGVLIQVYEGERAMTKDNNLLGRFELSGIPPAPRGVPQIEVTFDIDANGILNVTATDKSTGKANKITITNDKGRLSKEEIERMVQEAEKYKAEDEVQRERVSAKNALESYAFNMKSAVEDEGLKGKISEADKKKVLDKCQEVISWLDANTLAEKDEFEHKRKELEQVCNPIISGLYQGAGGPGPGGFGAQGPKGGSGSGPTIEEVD

B1
Kd [1]: > 25 µM
Kd [2]: > 25 µM
Kd [3]: > 75 µM
Kd [4]: > 75 µM

B2
Kd [1]: > 25 µM
Kd [2]: > 25 µM
Kd [3]: > 75 µM
Kd [5]: 0.51 µM

B3
Kd [3]: > 75 µM
Kd [4]: > 75 µM

B4
Kd [3]: > 25 µM
Kd [6]: > 25 µM
Kd [4]: > 25 µM

B5
Kd [4]: 4.63 µM

B6
Kd [3]: > 25 µM
Kd [4]: > 25 µM

B7
binding result [7]: binds

B8
binding result [7]: binds
